The target in test [1] is T1, S.c. Rad27 (Fen1) flap endonuclease with a 6xHis tag at the C-terminus (S. cerevisiae, UniProt P26793 1-382).
T1 sequence (looked up): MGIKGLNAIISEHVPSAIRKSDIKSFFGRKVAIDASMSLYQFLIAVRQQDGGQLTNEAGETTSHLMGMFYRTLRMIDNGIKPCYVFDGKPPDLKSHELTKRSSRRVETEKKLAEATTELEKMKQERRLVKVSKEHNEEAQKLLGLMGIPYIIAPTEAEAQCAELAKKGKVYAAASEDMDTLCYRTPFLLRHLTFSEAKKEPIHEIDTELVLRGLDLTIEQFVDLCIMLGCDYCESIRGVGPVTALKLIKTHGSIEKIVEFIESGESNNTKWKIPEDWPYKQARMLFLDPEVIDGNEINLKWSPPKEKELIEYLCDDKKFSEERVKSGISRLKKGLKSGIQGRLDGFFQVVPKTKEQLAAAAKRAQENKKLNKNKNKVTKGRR
In words: mass photometry.

Test [2] addresses T1, S.c. Rad27 (Fen1) flap endonuclease …. Nature of the test: single-molecule colocalisation on DNA.

B1: PCNA (as used in mass photometry; tag and label not stated) (natural protein, S. cerevisiae, UniProt P15873 1-258, looked up)
chain: MLEAKFEEASLFKRIIDGFKDCVQLVNFQCKEDGIIAQAVDDSRVLLVSLEIGVEAFQEYRCDHPVTLGMDLTSLSKILRCGNNTDTLTLIADNTPDSIILLFEDTKKDRIAEYSLKLMDIDADFLKIEELQYDSTLSLPSSEFSKIVRDLSQLSDSINIMITKETIKFVADGDIGSGSVIIKPFVDMEHPETSIKLEMDQPVDLTFGAKYLLDIIKGSSLSDRVGIRLSSEAPALFQFDLKSGFLQFFLAPKFNDEE
Regarding B1, in test [1], the binding result was “binds”.

B2: LD655-PCNA (S. cerevisiae 3X FLAG-S6-tagged PCNA labeled with LD655) (natural protein, UniProt P15873 1-258, looked up)
chain: MLEAKFEEASLFKRIIDGFKDCVQLVNFQCKEDGIIAQAVDDSRVLLVSLEIGVEAFQEYRCDHPVTLGMDLTSLSKILRCGNNTDTLTLIADNTPDSIILLFEDTKKDRIAEYSLKLMDIDADFLKIEELQYDSTLSLPSSEFSKIVRDLSQLSDSINIMITKETIKFVADGDIGSGSVIIKPFVDMEHPETSIKLEMDQPVDLTFGAKYLLDIIKGSSLSDRVGIRLSSEAPALFQFDLKSGFLQFFLAPKFNDEE
modifications: LD655 (from LD655-CoA, by SFP synthase) on the single serine residue of the S6 tag
Take B2: the binding result in test [2] is reported as “binds”.

The values are drawn from paper PMC12866951 (Cell, 2026).
